Laboratory results reported in article PMC11420332 (Biologics : Targets & Therapy, 2024).

Legend:
Assay in all cases: ELISA
IL-17B = IL-17B (Homo sapiens, UniProt Q9UHF5)
IL-17C = IL-17C (Homo sapiens, UniProt Q9P0M4)
IL-17D = IL-17D (Homo sapiens, UniProt Q8TAD2)

Measured: binding result

Sequence of IL-17C (Q9P0M4 19-197): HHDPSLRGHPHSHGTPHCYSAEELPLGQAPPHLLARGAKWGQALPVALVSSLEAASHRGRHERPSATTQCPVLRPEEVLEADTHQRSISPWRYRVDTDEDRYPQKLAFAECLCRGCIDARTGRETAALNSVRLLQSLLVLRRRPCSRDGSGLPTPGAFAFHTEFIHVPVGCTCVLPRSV
Sequence of IL-17D (Q8TAD2 16-202): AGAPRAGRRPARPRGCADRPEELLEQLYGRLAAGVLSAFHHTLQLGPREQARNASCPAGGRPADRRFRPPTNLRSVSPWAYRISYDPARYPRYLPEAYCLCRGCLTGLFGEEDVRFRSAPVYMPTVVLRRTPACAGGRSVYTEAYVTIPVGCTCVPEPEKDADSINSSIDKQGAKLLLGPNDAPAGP
Sequence of IL-17B (Q9UHF5 21-180): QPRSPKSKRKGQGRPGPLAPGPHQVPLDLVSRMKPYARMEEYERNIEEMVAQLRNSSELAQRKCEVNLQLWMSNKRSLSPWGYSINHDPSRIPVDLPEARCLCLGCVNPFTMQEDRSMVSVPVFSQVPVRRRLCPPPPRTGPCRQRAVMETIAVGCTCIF

B1: Ixekizumab (antibody, V domains shown)
VH: QVQLVQSGAEVKKPGSSVKVSCKASGYSFTDYHIHWVRQAPGQGLEWMGVINPMYGTTDYNQRFKGRVTITADESTSTAYMELSSLRSEDTAVYYCARYDYFTGTGVYWGQGTLVTVSS
VL: DIVMTQTPLSLSVTPGQPASISCRSSRSLVHSRGNTYLHWYLQKPGQSPQLLIYKVSNRFIGVPDRFSGSGSGTDFTLKISRVEAEDVGVYYCSQSTHLPFTFGQGTKLEIK
no binding (tested: 100 ng/well): all assays above
